Assay [1] deals with KPNA4 ARM (importin subunit alpha-3, armadillo repeat domain) (human) (UniProt O00629). As to the kind of experiment: fluorescence polarisation; competition: unlabelled peptide in serial dilution against KPNA4 ARM (master mix at four times the KD) with the probe FITC-Myc(320-328), probe of the major pocket; 50 mM KPO4 pH 7.5; Ki calculated from IC50.
For assay [2] the target is unchanged. The assay is described as follows: fluorescence polarisation; competition: unlabelled peptide in serial dilution against KPNA4 ARM (master mix at four times the KD) with the probe FITC-NCOR2(1307-1322), probe of the minor pocket; 50 mM KPO4 pH 7.5; Ki calculated from IC50.
The target of assay [3] is TLN1 PTB (talin-1, phosphotyrosine binding-like domain) (human) (UniProt Q9Y490). As to the kind of experiment: fluorescence polarisation; competition: unlabelled peptide in serial dilution against the protein domain (master mix at four times the KD) with its FITC-labelled probe peptide; 50 mM KPO4 or NaPO4 pH 7.5; Ki calculated from IC50.
Assay [4] deals with CLTC (clathrin heavy chain 1, Clathrin-propeller domain) (human) (UniProt Q00610). The assay is described as above.
In assay [5] the target is KEAP1 Kelch (kelch-like ECH-associated protein 1, Kelch domain) (human) (UniProt Q14145). The assay is described as above.
For assay [6], the target named is MDM2 SWIB (E3 ubiquitin-protein ligase MDM2, SWIB domain) (human) (UniProt Q00987). Described as above.

Where no end group is shown, it is not given here. [ ]: non-standard residue; d: D form. pY = N[C@@H](Cc1ccc(OP(=O)(O)O)cc1)C(=O)O; pT = C[C@@H](OP(=O)(O)O)[C@H](N)C(=O)O; pS = N[C@@H](COP(=O)(O)O)C(=O)O

Chain of KPNA4 ARM (importin subunit alpha-3, armadillo repeat domain) (human) (O00629 whole entry, the tested form may be a part): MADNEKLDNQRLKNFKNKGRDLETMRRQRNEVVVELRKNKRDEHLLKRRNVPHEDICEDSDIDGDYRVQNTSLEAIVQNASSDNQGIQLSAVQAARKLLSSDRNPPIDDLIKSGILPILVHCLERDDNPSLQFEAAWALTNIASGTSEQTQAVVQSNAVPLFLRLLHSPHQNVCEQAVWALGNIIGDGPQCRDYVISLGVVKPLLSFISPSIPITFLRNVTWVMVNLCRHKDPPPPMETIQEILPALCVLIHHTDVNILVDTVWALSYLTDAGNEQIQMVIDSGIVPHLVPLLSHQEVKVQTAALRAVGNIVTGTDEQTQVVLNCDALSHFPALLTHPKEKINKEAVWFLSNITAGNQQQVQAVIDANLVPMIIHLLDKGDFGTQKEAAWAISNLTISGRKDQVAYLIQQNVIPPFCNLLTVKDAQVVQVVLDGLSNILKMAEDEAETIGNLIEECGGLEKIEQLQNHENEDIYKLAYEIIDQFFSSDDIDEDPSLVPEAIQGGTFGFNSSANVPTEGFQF
Chain of TLN1 PTB (talin-1, phosphotyrosine binding-like domain) (human) (Q9Y490 whole entry, the tested form may be a part): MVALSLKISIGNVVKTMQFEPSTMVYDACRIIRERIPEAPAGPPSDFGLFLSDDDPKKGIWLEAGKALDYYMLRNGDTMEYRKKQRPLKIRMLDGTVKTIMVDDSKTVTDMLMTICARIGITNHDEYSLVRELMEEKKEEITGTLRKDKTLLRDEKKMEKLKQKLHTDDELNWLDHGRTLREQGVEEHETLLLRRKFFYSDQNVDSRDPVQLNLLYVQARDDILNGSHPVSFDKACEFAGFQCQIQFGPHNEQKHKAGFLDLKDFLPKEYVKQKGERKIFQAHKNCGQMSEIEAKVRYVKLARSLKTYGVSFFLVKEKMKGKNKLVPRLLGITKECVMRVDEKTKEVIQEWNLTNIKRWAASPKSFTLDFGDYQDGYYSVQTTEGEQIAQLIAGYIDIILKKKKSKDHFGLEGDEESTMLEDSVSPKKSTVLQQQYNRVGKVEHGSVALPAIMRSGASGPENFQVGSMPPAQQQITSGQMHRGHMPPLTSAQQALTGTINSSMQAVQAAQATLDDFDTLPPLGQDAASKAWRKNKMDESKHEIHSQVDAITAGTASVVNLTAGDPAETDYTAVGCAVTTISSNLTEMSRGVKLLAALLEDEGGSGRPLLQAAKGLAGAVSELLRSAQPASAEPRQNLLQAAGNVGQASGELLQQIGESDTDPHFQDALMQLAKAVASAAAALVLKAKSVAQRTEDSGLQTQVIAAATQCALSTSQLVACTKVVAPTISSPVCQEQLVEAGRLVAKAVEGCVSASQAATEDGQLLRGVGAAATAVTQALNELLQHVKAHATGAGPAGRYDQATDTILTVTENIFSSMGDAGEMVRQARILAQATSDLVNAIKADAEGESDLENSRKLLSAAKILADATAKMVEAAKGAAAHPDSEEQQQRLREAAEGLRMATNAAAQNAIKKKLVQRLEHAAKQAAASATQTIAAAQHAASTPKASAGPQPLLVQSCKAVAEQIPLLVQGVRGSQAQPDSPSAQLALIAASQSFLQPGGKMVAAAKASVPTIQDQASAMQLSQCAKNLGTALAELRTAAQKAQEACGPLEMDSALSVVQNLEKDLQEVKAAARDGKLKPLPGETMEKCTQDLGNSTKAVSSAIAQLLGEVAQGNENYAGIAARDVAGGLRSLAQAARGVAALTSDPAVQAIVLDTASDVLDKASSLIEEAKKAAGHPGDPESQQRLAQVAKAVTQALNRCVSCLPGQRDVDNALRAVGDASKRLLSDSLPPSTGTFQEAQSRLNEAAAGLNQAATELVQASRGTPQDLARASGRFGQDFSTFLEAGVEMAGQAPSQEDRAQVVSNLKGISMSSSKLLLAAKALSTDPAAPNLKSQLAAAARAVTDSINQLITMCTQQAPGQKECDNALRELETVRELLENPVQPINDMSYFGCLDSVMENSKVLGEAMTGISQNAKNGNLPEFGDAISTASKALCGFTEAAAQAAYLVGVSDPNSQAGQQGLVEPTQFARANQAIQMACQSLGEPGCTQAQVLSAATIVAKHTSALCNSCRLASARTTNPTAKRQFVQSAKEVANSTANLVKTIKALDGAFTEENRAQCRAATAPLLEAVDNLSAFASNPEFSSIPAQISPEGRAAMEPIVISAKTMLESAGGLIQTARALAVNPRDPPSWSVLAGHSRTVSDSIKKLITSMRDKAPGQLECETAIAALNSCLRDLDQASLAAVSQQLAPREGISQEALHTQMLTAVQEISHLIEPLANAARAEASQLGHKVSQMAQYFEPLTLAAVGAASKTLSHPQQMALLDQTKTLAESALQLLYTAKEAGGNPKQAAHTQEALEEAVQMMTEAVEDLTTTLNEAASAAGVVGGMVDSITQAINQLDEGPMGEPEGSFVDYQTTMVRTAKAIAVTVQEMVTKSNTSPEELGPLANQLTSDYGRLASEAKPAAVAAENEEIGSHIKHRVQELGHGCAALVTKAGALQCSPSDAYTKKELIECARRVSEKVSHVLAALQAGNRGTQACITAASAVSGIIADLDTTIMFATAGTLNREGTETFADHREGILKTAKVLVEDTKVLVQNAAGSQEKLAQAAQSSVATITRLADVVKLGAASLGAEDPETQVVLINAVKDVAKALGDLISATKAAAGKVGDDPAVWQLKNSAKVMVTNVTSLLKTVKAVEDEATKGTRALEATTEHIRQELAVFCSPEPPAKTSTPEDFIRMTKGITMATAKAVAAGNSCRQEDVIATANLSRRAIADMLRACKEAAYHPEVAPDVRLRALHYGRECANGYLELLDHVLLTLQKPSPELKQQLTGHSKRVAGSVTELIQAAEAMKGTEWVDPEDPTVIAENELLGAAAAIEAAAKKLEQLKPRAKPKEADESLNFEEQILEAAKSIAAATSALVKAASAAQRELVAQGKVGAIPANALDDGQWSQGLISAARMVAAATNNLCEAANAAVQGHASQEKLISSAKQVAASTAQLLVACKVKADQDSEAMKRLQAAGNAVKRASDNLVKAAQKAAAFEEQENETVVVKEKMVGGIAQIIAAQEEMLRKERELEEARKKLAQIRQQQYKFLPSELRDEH
Chain of KEAP1 Kelch (kelch-like ECH-associated protein 1, Kelch domain) (human) (Q14145 whole entry, the tested form may be a part): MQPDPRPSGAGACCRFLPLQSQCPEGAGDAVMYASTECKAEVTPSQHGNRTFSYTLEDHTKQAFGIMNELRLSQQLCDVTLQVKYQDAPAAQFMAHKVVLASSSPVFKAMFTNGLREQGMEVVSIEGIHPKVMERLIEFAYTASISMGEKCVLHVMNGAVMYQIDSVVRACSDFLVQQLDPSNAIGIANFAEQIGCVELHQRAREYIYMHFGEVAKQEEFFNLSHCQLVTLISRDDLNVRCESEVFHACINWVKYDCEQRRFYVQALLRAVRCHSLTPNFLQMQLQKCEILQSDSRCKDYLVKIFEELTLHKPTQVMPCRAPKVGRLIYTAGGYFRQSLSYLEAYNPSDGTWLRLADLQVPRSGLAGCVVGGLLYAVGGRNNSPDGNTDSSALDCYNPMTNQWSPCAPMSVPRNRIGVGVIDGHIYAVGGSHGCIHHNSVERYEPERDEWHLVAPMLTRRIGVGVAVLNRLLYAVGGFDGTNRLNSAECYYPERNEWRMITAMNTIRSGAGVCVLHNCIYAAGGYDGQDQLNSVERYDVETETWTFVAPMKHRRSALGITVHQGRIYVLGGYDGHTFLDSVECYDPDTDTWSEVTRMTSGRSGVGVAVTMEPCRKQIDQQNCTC
Chain of MDM2 SWIB (E3 ubiquitin-protein ligase MDM2, SWIB domain) (human) (Q00987 whole entry, the tested form may be a part): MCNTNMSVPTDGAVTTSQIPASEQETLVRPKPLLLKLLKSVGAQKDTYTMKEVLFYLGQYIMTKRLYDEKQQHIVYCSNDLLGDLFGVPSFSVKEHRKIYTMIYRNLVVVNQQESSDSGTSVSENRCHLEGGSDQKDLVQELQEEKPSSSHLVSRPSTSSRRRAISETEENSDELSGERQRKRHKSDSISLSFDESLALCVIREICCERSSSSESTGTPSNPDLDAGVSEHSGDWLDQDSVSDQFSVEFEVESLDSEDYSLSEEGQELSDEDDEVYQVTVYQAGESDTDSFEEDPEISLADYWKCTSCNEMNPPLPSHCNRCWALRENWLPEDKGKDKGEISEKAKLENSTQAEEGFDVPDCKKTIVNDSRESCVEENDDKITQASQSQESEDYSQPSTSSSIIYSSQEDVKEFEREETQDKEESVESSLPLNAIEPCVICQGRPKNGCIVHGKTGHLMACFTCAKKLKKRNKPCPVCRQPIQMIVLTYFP

As for VEPETKRLKLAASEDH-NH2 [ZRANB3 571-586 peptide], in assay [1], the IC50 (commonly the concentration needed to halve the response being measured) was 0.24 µM and the Ki (in general, a dissociation constant, usually derived from enzyme kinetics or from competition with a known ligand) was 0.14 µM.
Regarding GKKRTFDETVSTYVPL-NH2 [TPX2 312-327 peptide], in assay [2], the IC50 was 0.41 µM and the Ki is 0.047 µM.
With FPTDERSWVYSPLHYS-NH2 [PIP5K1C 640-655 peptide, unlabelled], in assay [3], the IC50 was 0.42 µM and the Ki was 0.066 µM.
For the molecule Ac-LIDLPLIDFCD[pT]PEAHY [GTSE1 645-660 peptide, phosphothreonine], in assay [4], the IC50 is 87 µM and the Ki is 34 µM.
Regarding AGVKRSAAEMYGSVTE-NH2 [HNRNPC 95-110 peptide], in assay [2], the half-maximal inhibitory concentration (IC50) was 0.5 µM and the Ki is 0.093 µM.
For Ac-GIIDPSTGERFPVTDY-NH2 [PLEC 4457-4471 peptide with an extra C-terminal Y, wild type], in assay [5], the IC50 was 1.5 µM and the Ki was 0.49 µM.
Regarding DLKRRLDSITSSQSSA-NH2 [KDR 958-973 peptide], in assay [2], the IC50 was 24 µM and the Ki is 8.9 µM. Besides, in assay [1], the IC50 is 22 µM and the Ki was 14 µM.
Turning to DLIFTDSKLYIPLE-NH2 [TPTE 112-125 peptide], in assay [3], the IC50 was 15 µM and the Ki was 4.9 µM.
As to Ac-LIYVDKENGEPGTRVV-NH2 [PTTG1 4-19 peptide], in assay [5], the IC50 is 3 µM.
Take IDPSTGERFPVTDAVN-NH2 [PLEC 4459-4474 peptide]: in assay [5], the IC50 was 6.1 µM and the Ki was 1.5 µM.

B1: NCOR1 1240-1255 peptide, pS1242 (peptide)
peptide: Ac-EI[pS]LKRSYESVEGNIK-NH2
SMILES: CC[C@H](C)[C@H](NC(=O)[C@H](CC(N)=O)NC(=O)CNC(=O)[C@H](CCC(=O)O)NC(=O)[C@@H](NC(=O)[C@H](CO)NC(=O)[C@H](CCC(=O)O)NC(=O)[C@H](Cc1ccc(O)cc1)NC(=O)[C@H](CO)NC(=O)[C@H](CCCNC(=N)N)NC(=O)[C@H](CCCCN)NC(=O)[C@H](CC(C)C)NC(=O)[C@H](COP(=O)(O)O)NC(=O)[C@@H](NC(=O)[C@H](CCC(=O)O)NC(C)=O)[C@@H](C)CC)C(C)C)C(=O)N[C@@H](CCCCN)C(N)=O
As for B1, in assay [2], the IC50 was 31 µM and the Ki is 10 µM.
For the molecule TPEDDRSFQTVWATVF [KIAA1671 600-615 peptide], in assay [6], the IC50 is 73 µM and the Ki was 1.76 µM.
Turning to ERENPSKRSRIERDID-NH2 [CTDSPL2 64-79 peptide], in assay [1], the IC50 was 1.9 µM and the Ki was 1.2 µM.
For the molecule IPEKKQRLEEATTICL-NH2 [AFF2 864-879 peptide], in assay [2], the IC50 is 3800 µM and the Ki is 1420 µM. Moreover, in assay [1], the IC50 is 2.3 µM and the Ki was 1.5 µM.
On to STMKRKHDEIQRSLPV-NH2 [ZBED9 651-666 peptide], for which, in assay [2], the IC50 was 2.4 µM and the Ki was 0.77 µM.
On to GFDAVTGEFTGMPEQW-NH2 [PAK1 88-103 peptide], for which, in assay [5], the IC50 was 44 µM and the Ki is 11 µM.
Take PKRTYDMMEGRVGRAI-NH2 [NCOR2 1307-1322 peptide, unlabelled]: the IC50 in assay [2] was 0.12 µM.
Turning to DHQFPAKRPRLSEPQG-NH2 [HJURP 675-690 peptide], the values for the IC50 in assay [2] and in assay [1] were 170 µM and 0.076 µM, respectively. Further, the Ki was 63 µM in assay [2] and 0.038 µM in assay [1].
With SLAPVKRTYEQMEFPL-NH2 [ADNP 711-726 peptide], in assay [2], the IC50 was 1.3 µM and the Ki is 0.38 µM.
On to EDSIEPPHKRLCLSSE-NH2 [DMTF1 44-59 peptide], for which, in assay [1], the IC50 is 0.13 µM and the Ki is 0.075 µM.
As for AKWDTANNPLYKEATS-NH2 [Integrin beta-3 763-778 peptide], in assay [3], the IC50 was 1430 µM and the Ki is 480 µM.

B2: NCOR1 1240-1255 peptide, pY1247 (peptide)
peptide: Ac-EISLKRS[pY]ESVEGNIK-NH2
SMILES: CC[C@H](C)[C@H](NC(=O)[C@H](CC(N)=O)NC(=O)CNC(=O)[C@H](CCC(=O)O)NC(=O)[C@@H](NC(=O)[C@H](CO)NC(=O)[C@H](CCC(=O)O)NC(=O)[C@H](Cc1ccc(OP(=O)(O)O)cc1)NC(=O)[C@H](CO)NC(=O)[C@H](CCCNC(=N)N)NC(=O)[C@H](CCCCN)NC(=O)[C@H](CC(C)C)NC(=O)[C@H](CO)NC(=O)[C@@H](NC(=O)[C@H](CCC(=O)O)NC(C)=O)[C@@H](C)CC)C(C)C)C(=O)N[C@@H](CCCCN)C(N)=O
As to B2, in assay [2], the IC50 was 21 µM and the Ki was 6.8 µM.
As to GVKRTYSEVYPGQQYL-NH2 [ZMIZ2 264-279 peptide], in assay [2], the IC50 is 0.43 µM and the Ki was 0.054 µM.
Regarding YDPVTGEWKSLAKLPE-NH2 [KLHL24 335-350 peptide], in assay [5], the concentration for half-maximal inhibition (IC50) was 80 µM and the Ki is 19 µM.
For the molecule ELKRKLEQEQKLVEVL-NH2 [MKL2 572-587 peptide], in assay [2], the IC50 was 36 µM and the Ki is 13 µM.
On to Ac-YDEETGEFLPIQPAQH-NH2 [NFE2L2 77-91 peptide with an extra N-terminal Y, wild type], for which, in assay [5], the IC50 is 0.31 µM and the Ki is 0.071 µM.
In the case of Ac-YKCKRQRQDQTLELVGL-NH2 [NKX2-5 192-207 peptide, wild type], in assay [1], the IC50 is 2.2 µM and the Ki was 6.8 µM.
With Ac-YVSGNLIDLCGNQGLP [MITF 256-271 peptide, Y265C], in assay [4], the IC50 is 220 µM and the Ki is 100 µM.
In the same order, the values of Ac-LIDLPLIDFCDTPEAHY [GTSE1 645-660 peptide] are 97 µM and 39 µM.
As to VGPLTPLWTYPATAAG-NH2 [NYAP1 542-557 peptide], in assay [3], the IC50 is 62 µM and the Ki is 20 µM.
On to Ac-YDEKTGEFLPIQPAQH-NH2 [NFE2L2 77-91 peptide with an extra N-terminal Y, E79K], for which, in assay [5], the IC50 is 1650 µM and the Ki is 397 µM.

B3: NCOR1 1240-1255 peptide, pS1246 (peptide)
peptide: Ac-EISLKR[pS]YESVEGNIK-NH2
SMILES: CC[C@H](C)[C@H](NC(=O)[C@H](CC(N)=O)NC(=O)CNC(=O)[C@H](CCC(=O)O)NC(=O)[C@@H](NC(=O)[C@H](CO)NC(=O)[C@H](CCC(=O)O)NC(=O)[C@H](Cc1ccc(O)cc1)NC(=O)[C@H](COP(=O)(O)O)NC(=O)[C@H](CCCNC(=N)N)NC(=O)[C@H](CCCCN)NC(=O)[C@H](CC(C)C)NC(=O)[C@H](CO)NC(=O)[C@@H](NC(=O)[C@H](CCC(=O)O)NC(C)=O)[C@@H](C)CC)C(C)C)C(=O)N[C@@H](CCCCN)C(N)=O
On to B3, for which, in assay [2], the IC50 was 240 µM and the Ki is 81 µM.
For the molecule Ac-YVSGNLIDLYGNQGLP [MITF 256-271 peptide], in assay [4], the IC50 was 150 µM and the Ki is 63 µM.
For the molecule PFKRPHSTISDSSTSS-NH2 [PLEKHG4B 1183-1198 peptide], in assay [2], the IC50 is 3.6 µM and the Ki was 1.2 µM.
Consider Ac-YKCRRQRQDQTLELVGL-NH2 [NKX2-5 192-207 peptide, K194R], for which, in assay [1], the IC50 was 98 µM and the Ki was 63 µM.
For Ac-YDEEKGEFLPIQPAQH-NH2 [NFE2L2 77-91 peptide with an extra N-terminal Y, T80K], in assay [5], the IC50 was 2540 µM and the inhibition constant Ki is 611 µM.
In the case of Ac-EISLKRSYESVEGNIK-NH2 [NCOR1 1240-1255 peptide, unphosphorylated], in assay [2], the IC50 was 11 µM and the Ki was 3.6 µM.

The record behind these values is paper PMC8769072, “Proteome‐scale mapping of binding sites in the unstructured regions of the human proteome” (Molecular Systems Biology, 2022).
